From publication PMC12132507 (bioRxiv, 2025)

T1: Eps15IDR (C-terminal intrinsically disordered region of human Eps15, residues 481 to 897) (human, UniProt P42566 481-896)
T1 sequence: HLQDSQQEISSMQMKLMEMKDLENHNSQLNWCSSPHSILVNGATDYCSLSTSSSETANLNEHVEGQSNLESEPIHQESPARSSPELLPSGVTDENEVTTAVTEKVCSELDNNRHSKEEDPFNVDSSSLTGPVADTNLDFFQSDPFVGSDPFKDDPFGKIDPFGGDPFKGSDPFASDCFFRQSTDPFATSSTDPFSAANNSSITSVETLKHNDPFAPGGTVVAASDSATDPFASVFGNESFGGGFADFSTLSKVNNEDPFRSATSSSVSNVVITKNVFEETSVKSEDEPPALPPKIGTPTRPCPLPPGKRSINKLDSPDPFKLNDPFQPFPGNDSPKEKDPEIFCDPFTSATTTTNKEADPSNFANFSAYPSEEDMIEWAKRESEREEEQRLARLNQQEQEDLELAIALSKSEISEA

B1: Eps15(648-780) (domain or fragment)
chain: KGSDPFASDCFFRQSTDPFATSSTDPFSAANNSSITSVETLKHNDPFAPGGTVVAASDSATDPFASVFGNESFGGGFADFSTLSKVNNEDPFRSATSSSVSNVVITKNVFEETSVKSEDEPPALPPKIGTPTR
B2: N-terminal domain of the clathrin heavy chain, TD40 (domain or fragment)
chain: MAQILPIRFQEHLQLQNLGINPANIGFSTLTMESDKFICIREKVGEQAQVVIIDMNDPSNPIRRPISADSAIMNPASKVIALKAGKTLQIFNIEMKSKMKAHTMTDDVTFWKWISLNTVALVTDNAVYHWSMEGESQPVKMFDRHSSLAGCQIINYRTDAKQKWLLLTGISAQQNRVVGAMQLYSVDRKVSQPIEGHAASFAQFKMEGNAEESTLFCFAVRGQAGGKLHIIEVGTPPTGNQPFPKKAVDVFFPPEAQNDFPVAMQISEKHDVVFLITKYGYIHLYDLETGTCIYMNRISGETIFVTAPHEATAGIIGVNRKGQVLSVCVEEENIIPYITNVLQNPDLALRMAVRNNLAGAEEL
B3: Eps15(569-671) (domain or fragment)
chain: SGVTDENEVTTAVTEKVCSELDNNRHSKEEDPFNVDSSSLTGPVADTNLDFFQSDPFVGSDPFKDDPFGKIDPFGGDPFKGSDPFASDCFFRQSTDPFATSST

Legend:
[1] = molecular target: B2; assay: NMR titration
[2] = molecular target: T1, Eps15IDR (C-terminal intrinsically …); assay: NMR titration

Binder	binding result [1]	binding result [2]
B1	binds	–
B2	–	binds
B3	binds	–
